According to article PMC2132682:

Target: GST-NRX (cytoplasmic domain of Neurexin) (Drosophila) (UniProt Q94887)
Assay: pull-down

Chain of UniProt Q94887 (Q94887 1239-1284): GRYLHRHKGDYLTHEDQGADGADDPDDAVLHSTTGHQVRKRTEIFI

Row | % relative binding | % relative binding of 32P-COR to NRX with the competitor | Substance
1 | 100% | – | 32P-labeled Coracle (cDNA3 isoform, recombinant) (natural protein)
2 | – | 36.6% | unlabeled Coracle (cDNA3 isoform, recombinant) (natural protein)
